Positions count from the first letter of the chain named.
T1: GST-PIF5 bHLH domain (Arabidopsis thaliana, UniProt Q84LH8 259-310)
T1 sequence: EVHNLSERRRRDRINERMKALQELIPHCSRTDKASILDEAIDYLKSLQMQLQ

B1: MIR156E mutant probe (E03/E04) (dsDNA)
DNA 1: CATATTCGTTCCCACTGACCTTCTCCTCAGGGGCTGACTGACCTATTCCCACGCCGAAAG
DNA 2: CTTTCGGCGTGGGAATAGGTCAGTCAGCCCCTGAGGAGAAGGTCAGTGGGAACGAATATG
B2: MIR156E probe (E01/E02) (dsDNA)
DNA 1: CATATTCGTTCCCACCACGTGTCTCCTCAGGGGCTGACCACGTGATTCCCACGCCGAAAG
DNA 2: CTTTCGGCGTGGGAATCACGTGGTCAGCCCCTGAGGAGACACGTGGTGGGAACGAATATG
B3: MIR156F probe (E05/E06) (dsDNA)
DNA 1: AACAAACCCCATTACGACACGTGACAGGCTGGGCATTCTCCACATGCTTTCTTGCCGAAA
DNA 2: TTTCGGCAAGAAAGCATGTGGAGAATGCCCAGCCTGTCACGTGTCGTAATGGGGTTTGTT
B4: MIR156F mutant probe (E07/E08) (dsDNA)
DNA 1: B3 DNA 1 with C18T, A19G, C20A, G21C, T22C, G23T
DNA 2: B3 DNA 2 with C38T, A39G, C40A, G41C, T42C, G43T

Target: T1, GST-PIF5 bHLH domain
Test: EMSA; Beyotime EMSA kit binding buffer (composition not stated), 20 min, room temperature, 5% native PAGE; 50x and 100x unlabeled competitor
Conditions: protein: recombinant, tags: N-terminal GST (pGEX-4T-1), chain copies: 2, label: biotin

Binder | binding result (blunt) | binding result (60 nt strands)
B1 | no binding | –
B2 | binds | –
B3 | binds | –
B4 | – | no binding
